Reference: US20240076412A1 (NATIONAL INSTITUTE OF BIOLOGICAL SCIENCES BEIJING, published 2024)
Like-named read-outs stand apart in the source and are kept apart here.

Key:
hGPC3-ΔHS [1] = target: T1, hGPC3-ΔHS (human, UniProt P51654 25-559, limits assumed); assay: SPR, antibody captured by anti-human Fc antibodies on CM5 chip, hGPC3 injected first, then hCD47
T1 construct: also called hGPC3-ΔHS protein

[2] = target: T2, extracellular domain of human CD47 (CD47-ECD), residues 1-118, with His6 tag and Avi tag (human, UniProt Q08722 19-136, biotin modification at the C-terminus (Avi tag, BirA) in the form called CD47-Bio); assay: SIRPα competition ELISA, CD47-ECD-His6 coated, competitor 0.5 nM biotinylated SIRPα-d1-mFc
T2 construct: also called CD47-ECD-His6; CD47-Bio; not shown: His6 tag and Avi tag from the vector

[3] = target: T2, extracellular domain of human CD47 …; assay: SPR (Biacore T200), IgG1 captured on CM5 chip, CD47 as analyte; the column head also prints x 10^6, not applied because kd/ka of the cells gives the KD cell in M [Con't]
Experimental: (§1) 1 μg/mL of anti-CD47 full length IgG1 antibodies were captured onto a CM5 chip for 30 s at 10 μl/min. CD47 in 2-fold serial dilutions (starting at 100 nmol, seven concentrations total) were injected over the antibody-bound surface for 120 s at 30 μl/min followed by a 240 s dissociation phase. After each cycle, the surface was regenerated with magnesium chloride.

[4] = target: T2, extracellular domain of human CD47 …; assay: SPR (Biacore T200), IgG1 captured on CM5 chip, CD47 as analyte; the column head prints KD (nM), but the cell equals kd/ka in M [Con't]
Experimental: as §1

[5] = target: T2, extracellular domain of human CD47 …; assay: SPR (Biacore T200), IgG1 captured on CM5 chip, CD47 as analyte [Con't]
Experimental: SPR was performed on a Biacore T200. 1 μg/mL of anti-CD47 full length IgG1 antibodies were captured onto a CM5 chip for 30 s at 10 μl/min. CD47 in 2-fold serial dilutions (starting at 100 nmol, seven concentrations total) were injected over the antibody-bound surface for 120 s at 30 μl/min followed by a 240 s dissociation phase. After each cycle, the surface was regenerated with magnesium chloride.

[6] = target: T2, extracellular domain of human CD47 …; assay: SIRPα competition ELISA, CD47-ECD-His6 coated, competitor 0.8 nM biotinylated SIRPα-d1-mFc
Experimental: The wash, development and read steps are the same as hCD47 binding ELISA. The OD450 values were transformed to Inhibition % in data analysis.
B. Antibodies in the form of full-length IgG1 were 3-fold serial diluted (starting at 40 nM, 12 concentrations total).

[7] = target: T2, extracellular domain of human CD47 …; assay: SPR (Biacore T200), IgG1 captured on CM5 chip, CD47 as analyte; the column head also prints x 10^-3, not applied because kd/ka of the cells gives the KD cell in M [Con't]
Experimental: as §1

[8] = target: T3, hCD47 protein (SPR analyte of Example 2) (human, UniProt Q08722 19-139, limits assumed); assay: SPR (Biacore T200), IgG1 captured on protein A/G CM5 chip, human CD47 as analyte
Experimental: (§2) All SPR analyses were performed on a Biacore T200 instrument (Biacore, GE Healthcare). […] The association rates (Kₒₙ), dissociation rates (Koff), and affinity constants (KD) were calculated using BiacoreT200 evaluation software.

[9] = target: T2, extracellular domain of human CD47 …; assay: CD47 binding ELISA, bio-CD47 captured on neutravidin, full-length IgG1
Experimental: (§3) CD47 binding ELISA: 2 μg/mL of neutravidin (Sigma) in phosphate buffered saline (PBS) was coated in U-bottom 96-well plate (Nunc, MaxiSorp™), 100 μL per well, at 4° C. overnight or 37° C. for 1 hour. 2 μg/mL of bio-CD47 in PBS containing 2% nonfat milk were then captured onto the plates at 100 μL per well by incubation at 30° C. for 1 hour. […] In between each incubation step, the ELISA plate was washed for 6 times with PBST solution (0.05% Tween20 containing PBS) at 200 μL per well. Followed by HRP-conjugated antibody incubation, the ELISA signal was developed by incubating with TMB substrate (Sigma) for 5-10 mins at 30° C. and then stop the reaction with 2M H₂SO₄ at 50 μL per well. The absorbance at 450 nm was read by a microplate reader (Bio-Rad). For scFv-Fc or IgG1 based ELISA, the method was basically the same as described above for phage-scFvs except the bound antibodies were detected by HRP-conjugated mouse anti-human IgG Fc antibody (Sigma).
(§4) In FIG. 3, A. Antibodies in the form of full-length IgG1 were 3-fold serial diluted (starting at 10 nM, 12 concentrations total). B. Antibodies in the form of full-length IgG1 were 3-fold serial diluted (starting at 40 nM, 12 concentrations total).

[10] = target: T2, extracellular domain of human CD47 …; assay: as above; remark: listed apart in the source
Experimental: as §3, §4

[11] = target: T3, hCD47 protein (SPR analyte of Example 2); assay: SPR, antibody captured by anti-human Fc antibodies on CM5 chip, hGPC3 injected first, then hCD47
hGPC3-ΔHS [12] = target: T1, hGPC3-ΔHS; assay: SPR (Biacore T200), IgG1 captured on protein A/G CM5 chip, antigen printed as human GPC3 (hGPC3-ΔHS by paragraph 180) as analyte
Experimental: as §2

mFcγRI = target: T4, mFcγRI; assay: SPR (Biacore T200), antibody captured on the chip, serially diluted mFcγRI as analyte; concentrations not given
T4 construct: Named singly only on the sheet; the text speaks of mFcγRs as a group; also called mouse Fcγ receptor I; one of the mFcγRs
T4 chain: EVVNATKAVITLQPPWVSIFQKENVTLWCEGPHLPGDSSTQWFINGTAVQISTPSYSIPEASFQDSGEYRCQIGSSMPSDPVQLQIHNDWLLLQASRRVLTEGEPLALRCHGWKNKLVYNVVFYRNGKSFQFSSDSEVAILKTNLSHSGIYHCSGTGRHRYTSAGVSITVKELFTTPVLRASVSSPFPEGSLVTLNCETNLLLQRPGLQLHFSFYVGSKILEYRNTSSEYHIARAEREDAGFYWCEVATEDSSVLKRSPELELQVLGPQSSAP

B1: BC18 full-length human IgG1 (antibody, V domains shown)
VH: QVQLQQSGPGLVKPSETLSLTCTVSGDSINYHYWSWIRQPPGKGLEWIGYIYYSGSTTYNPSLKSRVTMSVDPSKNHFSLKLTSVTAADTALYFCARQRGAYDYWGQGTQVTVSS
VL: DIQLTQSPSSVSASVGDRVTIACRASQDIGSRLVWYQQRPGKAPKLLIYAASSLQSGVPSRFSGSGSGTDFTLTISSLQPEDFATYYCQQSYSTPYSFGQGTKLEIK
notes: also called anti-CD47 mAb; parental anti-CD47 mAb
hGPC3-ΔHS [1]
  binding result: no binding
[2]
  IC50 (read off the curve): ~3 nM
[3]
  kon: 557000 M⁻¹ s⁻¹
[4]
  Kd: 2.22 nM
[5]
  Kd: 1.62 nM
  koff: 0.00117 s⁻¹
  kon: 721000 M⁻¹ s⁻¹
[6]
  IC50 (read off the curve): ~3 nM
[7]
  koff: 0.00123 s⁻¹
[8]
  Kd: 1.11 nM
  koff: 0.000753 s⁻¹
  kon: 679000 M⁻¹ s⁻¹
[9]
  EC50 (read off the curve): ~0.01 nM
[10]
  EC50 (read off the curve): ~0.01 nM

B2: GC33 (Codrituzumab), human IgG1 (antibody, V domains shown)
VH: QVQLVQSGAEVKKPGASVKVSCKASGYTFTDYEMHWVRQAPGQGLEWMGALDPKTGDTAYSQKFKGRVTLTADESTSTAYMELSSLRSEDTAVYYCTRFYSYTYWGQGTLVTVSS
VL: DVVMTQSPLSLPVTPGEPASISCRSSQSLVHSNANTYLHWYLQKPGQSPQLLIYKVSNRFSGVPDRFSGSGSGTDFTLKISRVEAEDVGVYYCSQNTHVPPTFGQGTKLEIK
notes: also called anti-GPC3 mAb
[11]
  binding result: no binding
hGPC3-ΔHS [12]
  Kd: 1.29 nM
  koff: 0.000275 s⁻¹
  kon: 213000 M⁻¹ s⁻¹

B3: GPC3/CD47-DANG (bispecific antibody)
heavy 1: QVQLVQSGAEVKKPGASVKVSCKASGYTFTDYEMHWVRQAPGQGLEWMGALDPKTGDTAYSQKFKGRVTLTADESTSTAYMELSSLRSEDTAVYYCTRFYSYTYWGQGTLVTVSSASTKGPSVFPLAPSSKSTSGGTAALGCLVKDYFPEPVTVSWNSGALTSGVHTFPAVLQSSGLYSLSSVVTVPSSSLGTQTYICNVNHKPSNTKVDKKAEPKSCDKTHTCPPCPAPELLGGPSVFLFPPKPKDTLMISRTPEVTCVVVAVSHEDPEVKFNWYVDGVEVHNAKTKPREEQYGSTYRVVSVLTVLHQDWLNGKEYKCKVSNKALPAPIEKTISKAKGQPREPQVYTLPPCRDELTKNQVSLWCLVKGFYPSDIAVEWESNGQPENNYKTTPPVLDSDGSFFLYSKLTVDKSRWQQGNVFSCSVMHEALHNHYTQKSLSLSPGK
light 1: DVVMTQSPLSLPVTPGEPASISCRSSQSLVHSNANTYLHWYLQKPGQSPQLLIYKVSNRFSGVPDRFSGSGSGTDFTLKISRVEAEDVGVYYCSQNTHVPPTFGQGTKLEIKRTVAAPSVFIFPPSDEQLKSGTASVVCLLNNFYPREAKVQWKVDNALQSGNSQESVTEQDSKDSTYSLSSTLTLSKADYEKHKVYACEVTHQGLSSPVTKSFNRGEC
heavy 2: QVQLQESGPGLVKPSETLSLTCTVSGDSINYHYWSWIRQPPGKGLEWIGYIYYSGSTTYNPSLKSRVTMSVDPSKNHFSLKLTSVTAADTALYFCARQRGAYDYWGQGTLVTVSSASVAAPSVFIFPPSDEQLKSGTASVVCLLNNFYPREAKVQWKVDNALQSGNSQESVTEQDSKDSTYSLSSTLTLSKADYEKHKVYACEVTHQGLSSPVTKSFNRGECDKTHTCPPCPAPELLGGPSVFLFPPKPKDTLMISRTPEVTCVVVAVSHEDPEVKFNWYVDGVEVHNAKTKPREEQYGSTYRVVSVLTVLHQDWLNGKEYKCKVSNKALPAPIEKTISKAKGQPREPQVCTLPPSRDELTKNQVSLSCAVKGFYPSDIAVEWESNGQPENNYKTTPPVLDSDGSFFLVSKLTVDKSRWQQGNVFSCSVMHEALHNHYTQKSLSLSPGK
light 2: DIQLTQSPSSVSASVGDRVTIACRASQDIGSRLVWYQQRPGKAPKLLIYAASSLQSGVPSRFSGSGSGTDFTLTISSLQPEDFATYYCQQSYSTPYSFGQGTKLEIKSSASTKGPSVFPLAPSSKSTSGGTAALGCLVKDYFPEPVTVSWNSGALTSGVHTFPAVLQSSGLYSLSSVVTVPSSSLGTQTYICNVNHKPSNTKVDKKAEPKSC
notes: also called GPC3/CD47 biAb Fc variant; GPC3/CD47-DANG variant
mFcγRI
  binding result: no binding
